One assay has as its target mouse ACVR2A (mouse, UniProt P27038 20-135, limits assumed). Description: ELISA. An outline of the steps:
(§1)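 mAb binding by ELISA; antigens: hu ACVR2A, mu ACVR2A; pos ctrl biotinylated goat anti-hu kappa LC; neg ctrl hu Fc.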

In a further assay the target is human ACVR2A (human, UniProt P27037 20-135, limits assumed). The experiment in a line: ELISA. An outline of the steps: as §1
On the technique in general: In an ELISA, binding on a coated surface is turned into a signal by an enzyme label.

The target in assay [1] is T1, biotinylated goat anti-human kappa light chain.
T1 construct: Positive control of the ELISA
Description: ELISA; positive control. Summed up:
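Monoclonal antibodies were first applied to human or mouse ACVR2A, alongside biotinylated goat anti-human kappa light chain (positive control) and human Fc (negative control); binding was then determined by ELISA.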
Note: test concentration or dose not given here.

Sequence of human ACVR2A (P27037 20-135 limits assumed): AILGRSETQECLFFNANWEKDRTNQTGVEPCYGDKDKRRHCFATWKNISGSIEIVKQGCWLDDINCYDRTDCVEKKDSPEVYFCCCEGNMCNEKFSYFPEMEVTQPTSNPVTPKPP
Sequence of mouse ACVR2A (P27038 20-135 limits assumed): as the sequence (P27037 20-135 limits assumed) above, with K20R, V73I counted along it

B1: 376_A06 (antibody, V domains shown)
VH: EVQLLESGGGLVQPGGSLRLSCAASGFTFDSYSMNWVRQAPGKGLEWVSGINYNSGYTSYADSVKGRFTISRDNSKNTLYLQMNSLRAEDTAVYYCARSATWHDTALDYWGQGTLVTVSS
VL: DIQMTQSPSSLSASVGDRVTITCRASQSILSYLNWYQQKPGKAPKLVIYYVSNRASGVPSRFSGSGSGTDFTLTISSLQPEDFATYYCQQSYDNPLTFGGGTKVEIK
notes: VH/VL only
Turning to B1, the optical density with mouse ACVR2A was 3.74 OD; with human ACVR2A, 3.69 OD; in assay [1], 3.16 OD.

B2: 376_D05 (antibody, V domains shown)
VH: EVQLLESGGGLVQPGGSLRLSCAASGFTFSSYSMNWVRQAPGKGLEWVSNINYNGGYKGYADSVKGRFTISRDNSKNTLYLQMNSLRAEDTAVYYCARSANWHDTALDYWGQGTLVTVSS
VL: DIQMTQSPSSLSASVGDRVTITCRASQSIVSYVNWYQQKPGKAPKLLIYAATSLASGVPSRFSGSGSGTDFTLTISSLQPEDFATYYCQQSYDTPLTFGGGTKVEIK
notes: VH/VL only
Take B2: the optical density amounted to 3.71 OD with mouse ACVR2A, 3.6 OD with human ACVR2A and 3.34 OD in assay [1].

B3: 376_A12 (antibody, V domains shown)
VH: EVQLLESGGGLVQPGGSLRLSCAASGFTFSSYSMNWVRQAPGKGLEWVANINYNSGYKGYADSVKGRFTISRDNSKNTLYLQMNSLRAEDTAVYYCARSANWHDTALDYWGQGTLVTVSS
VL: DIQMTQSPSSLSASVGDRVTITCRASQSILSYVNWYQQKPGKAPKLVIYAATSRASGVPSRFSGSGSGTDFTLTISSLQPEDFATYYCQQSYDTPLTFGGGTKVEIK
notes: VH/VL only
As to B3, the optical density in the assay with mouse ACVR2A was 3.34 OD; with human ACVR2A it was 3.7 OD; in assay [1] it was 3.22 OD.

B4: 376_C01 (antibody, V domains shown)
VH: EVQLLESGGGLVQPGGSLRLSCAASGFTFDSYSMNWVRQAPGKGLEWVAGINYNGGYTSYADSVKGRFTISRDNSKNTLYLQMNSLRAEDTAVYYCARSANWHDTALDYWGQGTLVTVSS
VL: DIQMTQSPSSLSASVGDRVTITCRASQSILTYLNWYQQKPGKAPKLLIYAATSLASGVPSRFSGSGSGTDFTLTISSLQPEDFATYYCQQSYDNPLTFGGGTKVEIK
notes: VH/VL only
Regarding B4, the optical density turned out to be 3.6 OD in the assay with mouse ACVR2A, 3.26 OD with human ACVR2A and 3.2 OD in assay [1].

B5: 376_D11 (antibody, V domains shown)
VH: EVQLLESGGGLVQPGGSLRLSCAASGFTFSSYGMNWVRQAPGKGLEWVANINYNGGYTGYADSVKGRFTISRDNSKNTLYLQMNSLRAEDTAVYYCARSANWHDTALDYWGQGTLVTVSS
VL: DIQMTQSPSSLSASVGDRVTITCRASQSILSYLNWYQQKPGKAPKLVIYAATSRASGVPSRFSGSGSGTDFTLTISSLQPEDFATYYCQQSYNNPLTFGGGTKVEIK
notes: VH/VL only
For the molecule B5, the figures for the optical density (with mouse ACVR2A; with human ACVR2A; in assay [1]) were 3.62 OD, 3.7 OD and 3.43 OD, respectively.

B6: 376_B09 (antibody, V domains shown)
VH: EVQLLESGGGLVQPGGSLRLSCAASGFTFDSYSMNWVRQAPGKGLEWVANINYNSGYKGYADSVKGRFTISRDNSKNTLYLQMNSLRAEDTAVYYCARSANWHDTALDYWGQGTLVTVSS
VL: DIQMTQSPSSLSASVGDRVTITCRASQSILTYVNWYQQKPGKAPKLVIYAATSRASGVPSRFSGSGSGTDFTLTISSLQPEDFATYYCQQSYDLPLTFGGGTKVEIK
notes: VH/VL only
As to B6, the optical density turned out to be 3.72 OD with mouse ACVR2A, 3.78 OD with human ACVR2A and 3.51 OD in assay [1].

B7: 376_B05 (antibody, V domains shown)
VH: EVQLLESGGGLVQPGGSLRLSCAASGFTFSSYSMNWVRQAPGKGLEWVANINYNGGYTGYADSVKGRFTISRDNSKNTLYLQMNSLRAEDTAVYYCARSANWHDTALDYWGQGTLVTVSS
VL: DIQMTQSPSSLSASVGDRVTITCRASQSIISYVNWYQQKPGKAPKLLIYAATSRASGVPSRFSGSGSGTDFTLTISSLQPEDFATYYCQQSYELPLTFGGGTKVEIK
notes: VH/VL only
For the molecule B7, the optical density stood at 3.78 OD in the assay with mouse ACVR2A, 3.65 OD with human ACVR2A and 3.52 OD in assay [1].

B8: 376_B04 (antibody, V domains shown)
VH: EVQLLESGGGLVQPGGSLRLSCAASGFTFDSYGMHWVRQAPGKGLEWVASINYNGGYTGYADSVKGRFTISRDNSKNTLYLQMNSLRAEDTAVYYCARSANWHDTALDYWGQGTLVTVSS
VL: DIQMTQSPSSLSASVGDRVTITCRASQSIVSYVNWYQQKPGKAPKLVIYAATSRASGVPSRFSGSGSGTDFTLTISSLQPEDFATYYCQQSYDTPLTFGGGTKVEIK
notes: VH/VL only
With B8, the optical density stood at 3.48 OD with mouse ACVR2A, 3.41 OD with human ACVR2A and 3.58 OD in assay [1].

B9: 376_B07 (antibody, V domains shown)
VH: EVQLLESGGGLVQPGGSLRLSCAASGFTFDSYSMNWVRQAPGKGLEWVSGINYNSGYTSYADSVKGRFTISRDNSKNTLYLQMNSLRAEDTAVYYCARSATWHDTALDYWGQGTLVTVSS
VL: DIQMTQSPSSLSASVGDRVTITCRASQSILSYLNWYQQKPGKAPKLVIYYVSNRASGVPSRFSGSGSGTDFTLTISSLQPEDFATYYCQQSYDNPLTFGGGTKVEIK
notes: VH/VL only
For the molecule B9, the optical density with mouse ACVR2A is 3.71 OD; with human ACVR2A, 3.73 OD; in assay [1], 3.53 OD.

B10: 376_A10 (antibody, V domains shown)
VH: EVQLLESGGGLVQPGGSLRLSCAASGFTFSDYGMNWVRQAPGKGLEWVSNINYNSGYKGYADSVKGRFTISRDNSKNTLYLQMNSLRAEDTAVYYCARSANWHDTALDYWGQGTLVTVSS
VL: DIQMTQSPSSLSASVGDRVTITCRASQSILSYLNWYQQKPGKAPKLLIYAATSRASGVPSRFSGSGSGTDFTLTISSLQPEDFATYYCQQSYESPLTFGGGTKVEIK
notes: VH/VL only
As for B10, the optical density turned out to be 3.64 OD in the assay with mouse ACVR2A, 3.68 OD in the assay with human ACVR2A and 3.17 OD in assay [1].

B11: 376_C12 (antibody, V domains shown)
VH: EVQLLESGGGLVQPGGSLRLSCAASGFTFSSYSMNWVRQAPGKGLEWVAGINYNGGYTGYADSVKGRFTISRDNSKNTLYLQMNSLRAEDTAVYYCARSANWHDTALDYWGQGTLVTVSS
VL: DIQMTQSPSSLSASVGDRVTITCRASQSILTYVNWYQQKPGKAPKLLIYAATSRASGVPSRFSGSGSGTDFTLTISSLQPEDFATYYCQQSYDSPLTFGGGTKVEIK
notes: VH/VL only
Take B11: the optical density was 3.32 OD with mouse ACVR2A, 3.7 OD in the assay with human ACVR2A and 3.39 OD in assay [1].

B12: 376_C06 (antibody, V domains shown)
VH: EVQLLESGGGLVQPGGSLRLSCAASGFTFSSYGMNWVRQAPGKGLEWVAGINYNGGYTSYADSVKGRFTISRDNSKNTLYLQMNSLRAEDTAVYYCARSATWHDTALDYWGQGTLVTVSS
VL: DIQMTQSPSSLSASVGDRVTITCRASQSILSYLNWYQQKPGKAPKLVIYAATSRASGVPSRFSGSGSGTDFTLTISSLQPEDFATYYCQQSYDSPLTFGGGTKVEIK
notes: VH/VL only
As for B12, the optical density was 3.56 OD with mouse ACVR2A, 3.49 OD with human ACVR2A and 3.43 OD in assay [1].

B13: 376_C11 (antibody, V domains shown)
VH: EVQLLESGGGLVQPGGSLRLSCAASGFTFDSYSMNWVRQAPGKGLEWVAGINYNSGYKSYADSVKGRFTISRDNSKNTLYLQMNSLRAEDTAVYYCARSATWHDTHLDYWGQGTLVTVSS
VL: DIQMTQSPSSLSASVGDRVTITCRASQSILTYLNWYQQKPGKAPKLVIYAATSRASGVPSRFSGSGSGTDFTLTISSLQPEDFATYYCQQSYDNPLTFGGGTKVEIK
notes: VH/VL only
With B13, the optical density amounted to 3.63 OD in the assay with mouse ACVR2A, 3.7 OD with human ACVR2A and 3.46 OD in assay [1].

B14: 376_C02 (antibody, V domains shown)
VH: EVQLLESGGGLVQPGGSLRLSCAASGFTFDSYGMNWVRQAPGKGLEWVSGINYNSGYTSYADSVKGRFTISRDNSKNTLYLQMNSLRAEDTAVYYCARSANWHDTALDYWGQGTLVTVSS
VL: DIQMTQSPSSLSASVGDRVTITCRASQSIVSYLNWYQQKPGKAPKLVIYAVTSRASGVPSRFSGSGSGTDFTLTISSLQPEDFATYYCQQSYDSPLTFGGGTKVEIK
notes: VH/VL only
Regarding B14, the optical density was 3.53 OD with mouse ACVR2A, 3.44 OD with human ACVR2A and 3.44 OD in assay [1].

B15: 376_B11 (antibody, V domains shown)
VH: EVQLLESGGGLVQPGGSLRLSCAASGFTFSSYSMNWVRQAPGKGLEWVSGINYNGGYTSYADSVKGRFTISRDNSKNTLYLQMNSLRAEDTAVYYCARSANWHDTALDYWGQGTLVTVSS
VL: DIQMTQSPSSLSASVGDRVTITCRASQSILSYVNWYQQKPGKAPKLVIYAATSRASGVPSRFSGSGSGTDFTLTISSLQPEDFATYYCQQSYDLPLTFGGGTKVEIK
notes: VH/VL only
As to B15, the optical density in the assay with mouse ACVR2A was 3.75 OD; with human ACVR2A it was 3.69 OD; in assay [1], 3.61 OD.

B16: 376_B06 (antibody, V domains shown)
VH: EVQLLESGGGLVQPGGSLRLSCAASGFTFSSYSMNWVRQAPGKGLEWVAGINYNSGYKGYADSVKGRFTISRDNSKNTLYLQMNSLRAEDTAVYYCARSATWHDTHLDYWGQGTLVTVSS
VL: DIQMTQSPSSLSASVGDRVTITCRASQSILTYLNWYQQKPGKAPKLLIYAATSRASGVPSRFSGSGSGTDFTLTISSLQPEDFATYYCQQSYDLPLTFGGGTKVEIK
notes: VH/VL only
As to B16, the optical density with mouse ACVR2A is 3.77 OD; in the assay with human ACVR2A, 3.7 OD; in assay [1] it was 3.46 OD.

B17: 376_B01 (antibody, V domains shown)
VH: EVQLLESGGGLVQPGGSLRLSCAASGFTFDSYSMNWVRQAPGKGLEWVAGINYNGGYTSYADSVKGRFTISRDNSKNTLYLQMNSLRAEDTAVYYCARSATWHDTHLDYWGQGTLVTVSS
VL: DIQMTQSPSSLSASVGDRVTITCRASQSILTYVNWYQQKPGKAPKLVIYAATSRASGVPSRFSGSGSGTDFTLTISSLQPEDFATYYCQQSYNLPLTFGGGTKVEIK
notes: VH/VL only
Regarding B17, the optical density turned out to be 3.67 OD with mouse ACVR2A, 3.28 OD with human ACVR2A and 3.24 OD in assay [1].

These data come from patent publication US20210380703A1 (RIGEL PHARMACEUTICALS, published 2021).
